Source: article PMC7857395 (2020)

B1: S2M11 Fab fragment (Fab, V domains shown)
VH: EVQLVQSGAEVKKPGASVKVSCKASGYTFTGYYMHWVRQAPGQGLEWMGWINPISSGTSYAQTFQGRVTMTSDTSITTAYMELSRLRSDDTAVYYCARAAPFYDFWSGYSYFDYWGQGTLVTVSS
VL: not shown
B2: S2E12 Fab fragment (Fab, V domains shown)
VH: not shown
VL: DIVLTQTPGTLSLSPGERATLSCRASQSVSSSYLAWYQQKPGQAPRLLIYGASSRATGIPDRFSGSGSGTDFTLTISRLEPEDFAVYYCQQYVGLTGWTFGQGTKVEIK

Molecular target: SARS-CoV-2 S receptor-binding domain (RBD) (SARS-CoV-2, UniProt P0DTC2)
Assay: SPR

| Binder | Kd [nM] |
| --- | --- |
| B1 | 66 |
| B2 | 1.6 |
